B1: TPR t1 (parent)
chain: GACCAAUCUGCCCUCAGAGCUCGAGAACAUCUUCGGAUGCAGAGGAGGCAGGCUUCGGUGGCGCGAUAGCGCCAACGUCCUCAACCUCCAAUGCAUCCCACCACAUGAUGAUGCCUGAAGAGCCUUGGUUUUUUG

Variants of: B1
Assay: polymerase ribozyme fitness, log enrichment relative to wild type (log ratio); higher = more active; in vitro selection for triplet polymerase activity
Outline: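 Genotype fitness is the logarithm of its enrichment divided by wild-type enrichment, using inverse-variance-weighted averages of replicates. That logarithm is base 2. Enrichment was measured by Illumina sequencing of input and output libraries from one triplicate in vitro selection round, with frozen incubation at −7 °C, on PCR-built, transcribed mutant libraries of each subunit of a heterodimeric triplet polymerase ribozyme, retaining genotypes with ≥10 input reads and ≥1 read per output.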

| Variant | polymerase ribozyme fitness (log ratio) |
| --- | --- |
| GACCAAUCUGCCCUCAGAGCUCGAAAACAUCUUCGGAUGCAGAGGAGGCAGGCUUCGGUGGCGCGAUAGCGCCAACGUCCUCAACCUCCAAUGCAUCCCACCACAUGAUGAUGCCUGAAGAGCGUUGGUUUUUUG [G25A C124G] | -5.14 |
| GACCAAUCUGGCCUCAGAGCUCGAGAACAUCUUUGGAUGCAGAGGAGGAAGGCUUCGGUGGCGCGAUAGCGCCAACGUCCUCAACCUCCAAUGCAUCCCACCACAUGAUGAUGCCUGAAGAGUCUUGGUUUUUUG [C11G C34U C49A C123U] | -2.86 |
| GACCAAUCUGCGCUCAGAGCUCGAGAACAUCUUCGGAUGCCGAGGAGGCAGGCUUCGGUGGCGCGAUAGCGCCAACGUCCUUAACCUCCAAUGCAUCCCACCACAUGAUGAUGCCUGAAGAGCCUUGGUUUUUUG [C12G A41C C82U] | -0.401 |
| GACCAAUCUGCCCUCAGAGCUCGAGAACAUCUUCGGAUGCAGAGGAGGCAGGCUUCGGUGGCGCGAUAGCGCCAACGUCCUCAACCUCCAACGCAUCCCACCACAUGAUGAAGCCUGAAGAGCCUUGGUUUUUUG [U92C U112A] | -0.53 |
| GACCAAUCUGCCUUCAGAACUCGAGAACAUCUUCGGAUGCAGAGGAGGCAGGCUUCGGUGGCGCGAUAGCGCCAACCUCCCCAACCUCCAAUGCAUCCCACCACAUGAUGAUGCCUGAAGAGCCUUGGUUUUUUG [C13U G19A G77C U81C] | -3.54 |
| GAUCAAUCUGCCCUCAGAGCUCGAGAACAUCUUCGGAUGCAGAGGAGGCAGGCUUCGGUGGCGCGAUAGCGCCAACGCCCUCAACCGCCAAUGCAUCCCACCACAUGAUGAUGCCUGAAGAGCCUUGGUUUUUUG [C3U U78C U87G] | -0.313 |
| GACCACUCUGCCCUCAGAGCUCGAGAACAUCUUCGGAUGCAGAGGAGGCAGGGUUCGGUGGCGCGAUAUCGCCAACGUCCUCAACCUCCAAUGCAUCCCACCACAUGAUGAUGCCUGAAGAGCCUUGGUUUUUUG [A6C C53G G69U] | 0.253 |
| GACUAAUCUGCCCUCAGAGCUCGAGAACAUCUUCGGAUGCAGAGGAGGCAGGCUUCGGUGGCGCGAUAGCGCCAACGCCCUCAACCUCCAAUGCAUCCCACCACAUGAUGAUGCCUGAAGAGCCUUGGUUUUUUG [C4U U78C] | -0.902 |
| GACCAAUCUGCCCUCAGAGCUCGAGAACAUCUUCGGAUGCAGAGGAGGCAGGCUUCGGUGACGCGAUAGCGCCAACGUCCUCAACCUCCAAUGCAUCCCACCACAUGAUGAGGCCUGAAUACCCUUGGUUUUUUG [G61A U112G G120U G122C] | -1.64 |
| GACCAAUCUGCCCUCAGAGCUCGAGAACAUCUUCGGGUGCAGAGGAGGCAGGCUUCGGUGGCGCGAUAGCGCCAACGUCCUCAACCUCCAAUGCAUCCCACCACAUGAUGAUGCCUGAAGAGCCUUGGUUUCUUG [A37G U132C] | -1.86 |
| GACCAAUCUGCCCUCAGAGCUCGAGAACAUCUUCGGAUGCAGAGGAGACAGGCUUCGGUGGCGCGAUAGCGCCAACGUCCUCAAGCUCCAAUGCAUCCCACCACAUGAUGAUGCCUGAAGAGCCUUGGUUUUUUG [G48A C85G] | -2.75 |
| GACCAAUCUGCCCUCAGAGCUCGAGAACAUCCUCGGAUGCAGAGGAGGCAGGCUUCGGUGGCGCGAUAGCGCCGACGUCCUCAACCUCCAAUGCAUCCCACCACAUGAUGAUGCCUGAAGAGCCUUGCUUUUUUG [U32C A74G G128C] | -2.08 |
| GGCCAAUCUGCCCUCAGAGCUCGAGAACAUCUUCGGAUGCAGAGGAGGCAGGCUUCGGUGGCGCGAUAGCGCCAACGUCCUCAACCUCCAAUGCAUCCCACCACAUGAUGAUGCCUGAAGAACCUUGGCUUUUUG [A2G G122A U129C] | -1.77 |
| GACCAAUCUGCCCUCAGAGCUCGAGAACAUCUUCGGAUGCAGAGGAGGCAGGCUUCGGUGUCGCGAUAGCGCCAACGUCCUCAACCUCCAAUGCAUCCCACCACCUGAUGAUGCCUGAAGAGCCUUGGUUUUUUG [G61U A105C] | -1.99 |
| GACCAAUCUGCCCUCAGAGCUCGAGAACAUCUUCGGAUGCAGAGGAGGCAGGCUUCGGUGGCGCGAUAGCGCCAACGUACUUAACCUCCAAUGAAUCCCACCACAUGAUGAUACCUGAAGAGCCUUGUUUUUUUG [C79A C82U C94A G113A G128U] | -5.6 |
| GACCAAUCUGCCCUCAGAGCUCGAGAACAUCUUCGGAUGCAGAGGAGGCAGGCUUCGGUGGCACGAUAGCGCCAACGUCCUCAACCUCCAAUGCAUCCCACCACAUGAUGAUGCCUGAAGAGCCUGGGUUUUUUG [G63A U126G] | -2.3 |
| GACCAAUCUGCCCUCAGAGCUCGAGAACAUCUUCGGAUGCAGAGGAGGCAGGCUUCGGUGGCGCGAUAGGGCCAACGUCCUCAACCUCCAAUGCAUCCCACCACAUGAUGAUGCCUCAAGAGCCUUGGUUUUUUG [C70G G117C] | -5.07 |
| GACCAAUCUGCCCUCAGAGCUCGAGAACAUCUUCGGAUGCAGGUGUGGCAGGCUUCGGUGGCGCGAUAGCGCCAACGUCCUCAACCUCCAAUGCAUCCCACCACAUGAUGAUGCCUGAAGAGCCUUGGUUUUAUG [A43G G44U A46U U133A] | -2.67 |
| GACCAAUCUGCCCUCAGAGCUCGAGAACAUCUUCGGAUGCAGAGGAGGCAGGCUUCGAUGGCGCGAUAGCGCCAAUGUCCUCAACCUCCAAUGCAUCCCACCACAUGAUGAUGCCUGAAGAGCCUUGGUUUUUUG [G58A C76U] | -0.743 |
| GACCAAUCUCCCCUCAGAGCUCGAGAACAUCUUCGGAUGCAGAGGAGGCAGGCUUCGGUGGCGCGAUAGCGCAAACGUCCUCAACCUCCAAUGCAUCCCACCACAUGAUGAUGCCUGAAGAGCCUUGGUUUUUUG [G10C C73A] | -1.86 |
| GACCAAUCUGCCCUCAGAGCUCGAGAACAUCUUCGGAUGCAGAGGAGGCAGGCUUCGGUGCCGCGAUAGCGCCAACGUCCUCAACCUCCAAUGCAUCCCACCAAAUGAUGAUGCCUGAAGAGCCUUGGUUUUUUG [G61C C104A] | -3.92 |

| Variant | polymerase ribozyme fitness (log ratio) |
| --- | --- |
| GACCAAUCUGCCCUCAGAACUCGAGAACAUCUUCGGAUGCAGAGGAGGCAGGCUUCGGUGGCGCGAUAGCGCCAACGUCCUCAACCUCCAAUGCAACCCACCACAUGAUGAUGACUGAAGAGCCUUUGUUUUUUG [G19A U96A C114A G127U] | -3.48 |
| GACCAAUCUGCCCUCAGAGCUCGAGAACAUCUUCGGAUGCAGAGGAGGCAGGCUUCGGUGGCCCGAUAGCGCCAACGUCCUCAAUCUCCAAUGCAUCCCACCACAUGAUGCUGCCUGAAGACCCUUGGUUUUUUG [G63C C85U A111C G122C] | -3.75 |
| GACCAAUCUGCCCUCAGAGCUCGAAAACAUCUUCGGAUGCAGAGGAGGCAGGCUUCGGUGGCGUGAUAGCGCCAACGUCCUCAACCUCCAAUGCAUCCCACCACAUGAUGAUGCCUGAAGAGCCUUGGUUUUUUG [G25A C64U] | -4.8 |
| GACCAAUCUGCCCUCAGAGCUCGAGAACAUCUUCGGAUGCAGAGUAGGCAGGCUUCGGUGGCGCGAUAGCGCCAACGUCCUCAACCUCCAAUGCAUCCCACCACAUGAUGAUGCCUGAAGAACCUUGGUUUUUUG [G45U G122A] | -1.14 |
| GACCAAUCUGCCCUCAGAGCUCGAGAACAUCUUCGGAUGCAGAGGAGGCAGGCUUCGGUGGCCCGAUAGCGCCAACGUCCUCAACCUCCAAUGCAUCCCACAACAUGAUGAUGCCUGAAGAGCCUUGGUUUUUUG [G63C C102A] | -2.59 |
| GACCCAUCUGCCCUCAGAGCUCGAGAACAUCUUCGGAUGCAGAGGAGGCAGGCUUCGGUGGCCCGAUAGCGCCAACGUCCUCAACCUCCAAUGCAUCCCACCACAUGAUGAUGUCUGAAGAGCCUUGGUUUUUUG [A5C G63C C114U] | -2.9 |
| GACCAAUCUGCCCUCAGAGCUCGAGAACAUCUUCGGAUGCAGAGGAGGCAGACUUCGGUUGCGCGAUAGCGCCAACGUCCUCAACCUCCAAUGCAUCCCACCACAUGAUGAUGCCUGAAGAGCCUUGGUUUUUUG [G52A G60U] | -2.42 |
| GACCAAUCUGCCCUCAGAGCUCGAGAACAUCUUCGGAUGGAGAGGAGGCAGGCUUAGGUGGCGCGAUACCGCCAACGUCCUCAACCUCCAAUGCAUCCCACCACAUGAUGAUGCGUGAAGAGCCUUGGUUUUUUG [C40G C56A G69C C115G] | -6.15 |
| GACCAAUCUGCCAUCAGAGCUCGAGAACAUCUUCGGAUGCAGAGGAGGCAGGCUUCAGUGGCGCGAUAGCGCCAACGUCCUCAACCUCCAAUGCAUCCCACCACAUGAUGAUGCCUGAAGAGCCUUCGUUUUUUG [C13A G57A G127C] | -3.7 |
| GUCCAAUCUGCUCUCAGAGCUCGAGAUCAUCUUCGGAUGCAGAGGAAGCAGGCUUCGGUGGCGCGAUAGCGCCAACGUCCUCAACCUCCAAUGCAUCCCACCACAUGAUGAUGCCUGAAGAGCCUUGGUUUUUUG [A2U C12U A27U G47A] | -5.43 |
| GACCAAUCGGCCCUCAGAGCUCGAGAACAUCUUCGGAUGCAGAGGAGGCAGGCUCCGGUGGCGCGAUAGCGCCAACGUCCUCAACCUCUAAUGAAUCCCACCACAUGAUGAUGCCUGAAGAGCCUAGGUUUUUUG [U9G U55C C89U C94A U126A] | -1.95 |
| GACCAAUCUGCCCUCAGAGCUGGAGAACAUCUUCGGAUGCAGAGGACGCAGGCUUCGGCGGCGCGAUAGCGCCAACGUCCUCAACCUCCAAGGCAUACCACCACAUGAUGGUGCCUGAAGAGCCUUGGUUUUUUG [C22G G47C U59C U92G C97A A111G] | -6.83 |
| GACAAAUCUGCCCUCAGAGCUCGAGAACAUCUUCGGAUGCUGAGGAGGCAGGCUUCGCUGGCGCGAUAGCGCCAACGUCCUCAACCUCCAAUGCAUCCCACCACAUGAUGAUGCCUAAAGAGCCUUGGUUUUUUG [C4A A41U G58C G117A] | -7.2 |
| GACCAAUCUGCCCUCAGAGCUCGAGAACAUCUUCGGAUGCAGAGGAGGCAGGCUUCCGUGGCGCGAUAGCGCCAACGUCCUCAACCUCAAAUGCAUCCCACCACAUGAUGAUGCCUUGAGAGCCUUGGUCUUUUU [G57C C89A G117U A118G U130C G135U] | -2.49 |
| GACCAAUCUGCUCUCAGAGCUCGAGAACAUCUUCGGAUGCAGAGGCGGCAGGGUUCGGUGGCGCGAUAGCCCCAACGUCCUCACCCUCCAAUGCCUCCCACCACAUGAUGAUGCCUGAAGAGCCUUGGUUUUUUG [C12U A46C C53G G71C A84C A95C] | -2.46 |
| GACCAAUCUGCCCUCAGAGCUCGAGAACAUCUUCGGAUGCAGAGGAGGCAGGCUUCGGUGGCGCGAUAUCGCCAACGUCCUCAACCUACUAUGCAUCCCACCACAUGAUGAUGCCUGAAGAGCCUUGGUUUUUUG [G69U C88A A90U] | 0.178 |
| GUCCAAUCUUCCCUCAGAGCUCGAGAACAUCUUCGGAUGCAGAGGAGGCAGGCUUCGGUGGCGCGAUAGCGCCAACGUCCUCAACCUCCAAUGCAUCCCCCCACAUGAUGAUGCCUGAAGAGCCUUGGUUUUUUG [A2U G10U A100C] | -4.35 |
| GACCAAUCUGCUCUCAGAGCUCGAGAACAUCUUCGGAUGCAGAGGAGGCAGGCUUCGGUGGCUCGAUAGCGCCAACGUCCUCAAGCUACAAUGCAUCCCACCACAUGAUGAUGCCUGAAGAGCCUUGGUUUUUUG [C12U G63U C85G C88A] | -4.33 |
| GACCAAUCUGCCCUCAGAGCUCGAGAACAUCUUCGGAUGCAGAGGAGGCAGGCUUCAGUGGCGCGAUAGCGCCAACGCCCUCAACCCCCAAUGCAUCCCACCAUAUGAUGAUACCUGAAGAGCCUUGGUUUUUUG [G57A U78C U87C C104U G113A] | -1.61 |
| GACCAAUCUGCCCUCAGAGCUCGAGAACAUCUUCGGAUGCAGAGGAGGCAGGCUUCGGUGGCGCGAUAGCGUCAACGUCCGCAACCACCAAUGCAUCCCACAACAUGAUGAUGCCUGAAGAGCCUUGGUUUUUUG [C72U U81G U87A C102A] | -7.12 |
| GACCAAUCUGCCUCCAGAGCUCGAGAACAUCUUCGGAUGCAGAGGAGGCAGGCUUCGGUGGCGCGAUAUUGCCAACGUCCUCAACCUCCGAUGCAUCCCACCACAUGAUGAUGCCUGAAGAGCCUUGGUUUUUUG [C13U U14C G69U C70U A90G] | -2.94 |

— the RNAGym collection of RNA variant scans (doi:10.1073/pnas.2313332121)
